Reference: the supplement of paper PMC9170038

Tests used:
[1] = tested on: MS2 coat protein; assay: apparent KD of MS2 coat protein, switch ON state; designed switch direction (-1 OFF switch, 1 ON switch): -1; higher = weaker reporter binding; details: FMN input: 0 or 200 uM; Eterna round: R93 (includes R88 designs)
Summary of the method: (§1)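 Designed RNA switches were made by on-chip transcription from Illumina sequencing clusters and then titrated with SNAP-549-labelled MS2 coat protein. Twofold steps ran from 0.7 or 1.5 nM to 3 µM, each lasting 0.8–1.5 h early and 10–20 min late, in 100 mM Tris-HCl pH 7.5, 80 mM KCl, 4 mM MgCl2, without or with constant ligand. Apparent KD is the per-design median of normalised cluster binding-curve fits.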

[2] = tested on: MS2 coat protein; assay: apparent KD of MS2 coat protein, switch OFF state (with FMN for OFF switches, without FMN for ON switches); designed switch direction (-1 OFF switch, 1 ON switch): -1; higher = weaker reporter binding; details: FMN input: 0 or 200 uM; Eterna round: R93 (includes R88 designs)
Summary of the method: as §1

| Sequence | apparent KD of MS2 coat protein [1] [nM] | apparent KD of MS2 coat protein [2] [nM] |
| --- | --- | --- |
| AAAUGCUGAGGAUAUACAUGAGGAUCACCCAUGUAAAAUAAAUAAUGGAUGUAAACGUGUAGAAGGCAGCAUAA [Exclusion 3.14b (FMN+ favored )] | 79.6 | 23 |
| AAAUUAGGAGGAUAUACAUGAGGAUCACCCAUGUGACGAUGUUACUGCAUGAAGCCAAGUAGAAGGUCUAAGAA [Lacelaatdi] | 24.7 | 49.5 |
| AAAUUGUCAGGAUAUCGUAUAACUGGGAAAACCAGGAGAUACGAGAAGGGACAUGAGGAUCACCCAUGUAAAAC [May 94] | 51.6 | 65.8 |
| AACAAACAUGAGGAUCACCCAUGUAAGGAUAUACGAAACAAACAAACAAACAAACAAAGUAGAAGGUACAGGAA [Exclusive 1] | 17.3 | 16.3 |
| AACAAACAUGAGGAUCACCCAUGUAAGGAUAUGCGACAAAAACAAAAAACAAAAAAAAGCAGAAGGUACAACAA [Amethyst 100] | 23.4 | 30.4 |
| AACAAAUGAGGAUAUACAAACAAAAAAAACAAACAAAACAAACAUGAGGAUCACCCAUGUAGAAGGCAUAAACA [JR_Exc002_Sub901] | 24.8 | 24.5 |
| AACAAGACAGGAUAUACAUGAGGAUCACCCAUGUCACAACAAAGCAGCGCAACACAAAGUAGAAGGGUCAUGGA [Ruby 11] | 81.2 | 82.6 |
| AACAGACAUGAGGAUCACCCAUGUGAGGAUAUCCAAAACGAUAAAACAAGAAUGACAGGGAGAAGGCACAGCAA [JR_Exc001_Sub008] | 65.2 | 52.2 |
| AACAGACAUGAGGAUCACCCAUGUGAGGAUAUCCCAAUCGAUAGAACUAGAAUGACAAGGAGAAGGCACAGCAA [JR_Exc001_Sub005] | 70.1 | 70.1 |
| AACAGGAGAGGAUAUACAUGAGGAUCACCCAUGUAGGAAACAAGCAGAGUACCAAAAAGUAGAAGGCUCAUGGA [Ruby 32] | 28.1 | 43.1 |
| AACAGGUUAGGAUAUAUGUAACAAAUAAAAAAAAUAUAAACAUAGAAGGAACAUGAGGAUCACCCAUGUUAACA [May 29] | 29.7 | 19.4 |
| AACAGUACAGGAUAUACAUGAGGAUCACCCAUGUAAAGGGAAUAAAACUAAAAUAAAAGUAGAAGGGUACUGGA [Moding Maslow revisited (73) 20] | 50.9 | 92.6 |
| AACAGUACAGGAUAUACAUGAGGAUCACCCAUGUGAAAAUUAAGUGGCGUACCACAAAGUAGAAGGGUACUGAA [Moding Maslow Revisited (73) 26] | 27.9 | 125 |
| AACAGUACAGGAUAUACAUGAGGAUCACCCAUGUGACAGAAAUAAAACAAAAAUAAAAGUAGAAGGGUACUGGA [Ruby 42] | 31 | 61.2 |
| AACAGUACAGGAUAUACAUGAGGAUCACCCAUGUGGGAAAAAAGAUCGAGAGAUCCAUGUAGAAGGGUACUGGA [JL In the Red 06] | 85.5 | 25.6 |
| AACAUACAUGAGGAUCACCCAUGUCAGGAUAUGCCGGGUUAGAACCAACUAAAAAAACGUAGAAGGGACAAAAA [Bilbo Confounded 5 - Jieux - Exclusion 1] | 63.3 | 46.7 |
| AACCGACAUGAGGAUCACCCAUGUAAGGAUAUGCAUCCUUCGGCCCGGACCAGAGGAAGCAGAAGGUGCAGGGA [Iscegebia] | 43.1 | 41.2 |
| AACUAGUCAGGAUAUACGAACAUGUCAAAAGACAUGAAGGGACAUGAGGAUCACCCAUGUAGAAGGGACUAGCA [74%, Web mod - With 2 less G's] | 44 | 148 |
| AACUCGUCAGGAUAUGCGCACAGAUAAUACGCUACACAAAUGCAGAAGGGACAUGAGGAUCACCCAUGUAAAUA [JR_Exc004_Sub504] | 42.6 | 31.2 |
| AACUGACAUGAGGAUCACCCAUGUCAGGAUAUGACUUCGAAAAAUAAAAUAAACGAUGUCAGAAGGGACAUGGG [Design 68: Sub-opt O] | 21.2 | 19 |
| AACUGACAUGAGGAUCACCCAUGUCAGGAUAUGACUUGACGAAAAAAAACACGUCAUGUCAGAAGGGACAUGAA [Design 88: Sub-opt YB] | 15 | 16.9 |
| AACUGACAUGAGGAUCACCCAUGUCAGGAUAUGAUAUGUAAAAAAAUAAAAAUACUUAUCAGAAGGGACAUGGG [Design 39: Sub-opt A] | 18.2 | 20 |
